These results are taken from US7338658.

Test [1] has as its target Fc receptors on human cells (γIFN-induced monocytes, γIFN-induced THP-1 cells, ADCC effector cells). Description: cell-based or functional assay.
The target of test [2] is baboon CD4 on lymphocytes (baboon). Kind of test: flow cytometry on lymphocytes of different species. On the technique in general: Flow cytometry measures light scatter and fluorescence of single cells or particles in a stream.
In test [3] the target is human CD4 on cells (human) (UniProt P01730). Kind of test: cell-based or functional assay.

Regarding “CE9.1 monkey/human chimeric anti-CD4 monoclonal antibody (ATCC No. 69030 construct) (from UniProt P01857 1-330)”, in test [1], the ADCC, concentration at maximal cytotoxicity was found to be 6 µg/mL; the ADCC, total specific lysis of SupT1 cells was found to be 50%; the ED50 of cell-cell adhesion (γIFN activated fresh monocytes and CD4+ SupT1 T cells) was 0.02 µg/mL. In test [2], the fold lower reactivity than human worked out at 10 fold.

In the case of CE9γ4λK (antibody), in test [3], the IL-2 Production (IC50), three way MLR worked out at 0.02 µg/mL and the Proliferation (IC50), three way MLR came out at 0.02 µg/mL.
